Data as given in patent publication US20250144194A1 (KAIMI BIOMEDICINE CHENGDU, published 2025).

T1: FcγRIIA protein (UniProt P12318 36-218, limits assumed)
T1 construct: also called hFcγRIIA
T1 sequence (looked up): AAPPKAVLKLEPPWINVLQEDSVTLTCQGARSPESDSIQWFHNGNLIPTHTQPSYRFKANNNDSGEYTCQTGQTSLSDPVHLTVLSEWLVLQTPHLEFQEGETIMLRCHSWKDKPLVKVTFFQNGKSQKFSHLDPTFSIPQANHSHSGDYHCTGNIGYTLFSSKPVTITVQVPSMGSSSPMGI


Biological target: T1, FcγRIIA protein
Assay: BLI, multi-concentration (5000-312.5 nM of Fc variant)
Excerpt: The Seq2-Sf9 and Seq3-Sf9 are identified using Coomassie Brilliant Blue stained SDS-PAGE gel, with BSA as a control protein. The arrows indicate the positions of Seq2-Sf9 and Seq3-Sf9, and it can be determined that the purified protein is obtained with a molecular weight of about 26 kDa. […] The curves shown from bottom to top indicate that the concentrations of the Seq2-Sf9 and Seq3-Sf9 proteins […] in sequence.

Kd [nM]	Binder
789	Seq2-Sf9 (other, non-mammalian (insect, Sf9) N-glycosylation at position 297 (EU numbering), without sialic acid, Expressed from the pFastBacHTa-gp64 vector in Sf9 cells and purified from the supernatant by Protein A, about 26 kDa on SDS-PAGE; also called mouse Fc with three mutations) VDKKIVPADCGCAPCICAVPEVSSVFIFPPKPKDVLTITLTPKVTCVVVDISKDDPEVQFSWFVDDVEVHTAQTQPREEQFNSTFRSVSELPIMHQDWLNGKEFKCRVNSAAFPAPIEKTISKTKGRPKAPQVYTIPPPKEQMAKDKVSLTCMITDFFPEDITVEWQWNGQPAENYKNTQPIMDTDGSYFVYSKLNVQKSNWEAGNTFTCSVLHEGLHNHHTEKSLSHSPGL
450	Seq3-Sf9 (other, non-mammalian (insect, Sf9) N-glycosylation at position 297 (EU numbering), without sialic acid, also called mouse Fc with five mutations) VDKKIVPADCGCAPCICAVPEVSSVFIFPPKPKDVLTITLTPKVTCVVVDISKDDPEVQFSWFVDDVEVHTAQTQPREEQFNSTFRSVSELPIMHQDWLNGKEFKCRVNSAAFPLPEEKTISKTKGRPKAPQVYTIPPPKEQMAKDKVSLTCMITDFFPEDITVEWQWNGQPAENYKNTQPIMDTDGSYFVYSKLNVQKSNWEAGNTFTCSVLHEGLHNHHTEKSLSHSPGL
